Laboratory results from PMC11203950, “Folding and Binding Kinetics of the Tandem of SH2 Domains from SHP2” (International Journal of Molecular Sciences, 2024).
One block for each substance: values may come before it.

Key:
[1] = biological target: T1, NSH2-CSH2 tandem of SHP2 (Homo sapiens, UniProt Q06124); assay: Kinetic displacement of peptide from NSH2-CSH2 tandem by Gab2T; format: binding; conditions: for rate constant in displacement by Gab2T: pH 7.2, 10 °C
T1 construct: The constructs encoding the isolated NSH2 domain, the isolated CSH2 domain, and the NSH2-CSH2 tandem were subcloned in a pET28b+ plasmid vector; made in house; host or cells: Escherichia coli BL21 (DE3)
T1 sequence (Q06124 1-220 limits assumed): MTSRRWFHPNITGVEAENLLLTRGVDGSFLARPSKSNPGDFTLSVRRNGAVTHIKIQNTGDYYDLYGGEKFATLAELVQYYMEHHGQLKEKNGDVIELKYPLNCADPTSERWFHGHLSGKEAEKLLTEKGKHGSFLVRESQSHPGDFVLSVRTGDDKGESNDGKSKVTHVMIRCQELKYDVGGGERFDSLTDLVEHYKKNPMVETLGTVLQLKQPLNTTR
From the text: (§1) In analogy to our previous works, we performed kinetic binding experiments by challenging the NSH2-CSH2 tandem with peptides mimicking different portions of Gab2, namely Gab2_608–620 (binding the NSH2 domain) and Gab2_637–649 (binding the CSH2 domain). From now on, the two peptides will be named, respectively, Gab2N and Gab2C, while the peptide mimicking the entire segment of Gab2 binding both SH2 domains, and corresponding to Gab2_608–649, will be named Gab2T. To compare data with our previous works, the experiments were performed in buffer Hepes 50 mM, NaCl 300 mM, 2 mM DTT, pH 7.2, at 10 °C, by following the FRET signal occurring through the excitation of the tryptophan residues in the NSH2-CSH2 tandem with light at 280 nm and following the change in fluorescence of the dansyl group covalently attached to the N-terminus of the peptides.
We also resorted to monitoring the binding reaction between the NSH2-CSH2 tandem with the Gab2T peptide. […] To obtain information about the ability of the NSH2-CSH2 to bind Gab2T, we performed kinetic displacement experiments in order to test the ability of Gab2T to displace Gab2N and Gab2C. […] These two values are in great agreement with what was previously calculated in binding experiments of the isolated domains.
Kinetic experiments of binding between the NSH2, CSH2 and NSH2-CSH2 tandem and the peptides mimicking different portions of Gab2 were measured by monitoring FRET between the tryptophan, acting as a donor, and a dansyl group covalently attached to the N-terminus of the peptides, acting as acceptor. […] The excitation wavelength used was 280 nm while the fluorescence emission was collected using a 475 nm cutoff glass filter. […] The observed rate constants were calculated from the average of 3–6 single traces and by fitting the time-course for binding using a single exponential equation y=Aexp−kobs t+c where A is the amplitude of the kinetic trace, kobs the observed rate constant and c the final fluorescence value of the trace. […]

[2] = biological target: T2, NSH2 domain (Homo sapiens, UniProt Q06124); assay: Kinetic binding (stopped-flow, FRET Trp-dansyl) to the isolated NSH2 domain
T2 construct: The constructs encoding the isolated NSH2 domain, the isolated CSH2 domain, and the NSH2-CSH2 tandem were subcloned in a pET28b+ plasmid vector; made in house; host or cells: Escherichia coli BL21 (DE3)
T2 sequence (Q06124 6-102 limits assumed): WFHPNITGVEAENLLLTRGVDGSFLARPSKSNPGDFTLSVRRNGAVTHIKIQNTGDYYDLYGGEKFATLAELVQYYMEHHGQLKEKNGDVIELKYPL
From the text: as §1, with “peptides. […]” for “peptides.”
Kinetic experiments of binding between the NSH2, CSH2 and NSH2-CSH2 tandem and the peptides mimicking different portions of Gab2 were measured by monitoring FRET between the tryptophan, acting as a donor, and a dansyl group covalently attached to the N-terminus of the peptides, acting as acceptor. […] The excitation wavelength used was 280 nm while the fluorescence emission was collected using a 475 nm cutoff glass filter. […]

[3] = biological target: T1, NSH2-CSH2 tandem of SHP2; assay: Kinetic binding (stopped-flow, FRET Trp-dansyl) to the NSH2-CSH2 tandem; conditions: for kon (microscopic association rate constant): Hepes 50 mM, NaCl 300 mM, 2 mM DTT
From the text: as §1
First, to test whether the presence of the contiguous CSH2 affected the affinity of the NSH2 domain for Gab2, we mixed a constant concentration of dansylated Gab2N (1 µM) vs. increasing concentrations of NSH2-CSH2 (ranging from 2 µM to 9 µM). The obtained observed rate constant (kobs) as a function of the concentration of the NSH2-CSH2 tandem was fitted with a linear equation, the slope corresponding to the microscopic association rate constant (kon) and the intercept with the y-axis to the microscopic dissociation rate constant (koff). To directly measure the koff, we performed displacement experiments by rapidly mixing a preincubated complex of NSH2-CSH2 with dansylated Gab2N (both at a constant concentration of 2 µM) versus a high excess of non-dansylated Gab2N (50 µM).
We also resorted to monitoring the binding reaction between the NSH2-CSH2 tandem with the Gab2T peptide. […] To obtain information about the ability of the NSH2-CSH2 to bind Gab2T, we performed kinetic displacement experiments in order to test the ability of Gab2T to displace Gab2N and Gab2C. Thus, in two separate experiments, we rapidly mixed a preincubated complex of NSH2-CSH2 with Gab2N (both at a constant concentration of 2 µM) versus an excess of Gab2T (50 µM) and a preincubated complex of NSH2-CSH2 with Gab2C (both at constant concentrations of 2 µM and 10 µM, respectively) versus an excess of Gab2T (50 µM) (Figure 5C). Importantly, in the two experiments, we could calculate two different rate constants, respectively, of 1.2 ± 0.3 s^−1 in the case of Gab2N, and 82 ± 1 s^−1 in the case of Gab2C. These two values are in great agreement with what was previously calculated in binding experiments of the isolated domains.
Kinetic experiments of binding between the NSH2, CSH2 and NSH2-CSH2 tandem and the peptides mimicking different portions of Gab2 were measured by monitoring FRET between the tryptophan, acting as a donor, and a dansyl group covalently attached to the N-terminus of the peptides, acting as acceptor. The experiments were performed on a single-mixing SX-18 stopped-flow instrument (Applied Photophysics, Leatherhead, UK) recording the change of dansyl emission. The excitation wavelength used was 280 nm while the fluorescence emission was collected using a 475 nm cutoff glass filter. The binding experiments were carried out at 25 °C mixing a constant concentration of dansylated peptide (1 μM) versus increasing concentrations of NSH2, CSH2 and NSH2-CSH2 (ranging from 2 to 10 μM). The buffer used was Hepes 50 mM, NaCl 300 mM, pH 7.2. The observed rate constants were calculated from the average of 3–6 single traces and by fitting the time-course for binding using a single exponential equation y=Aexp−kobs t+c where A is the amplitude of the kinetic trace, kobs the observed rate constant and c the final fluorescence value of the trace. The dependences of kobs as a function of ligand concentrations were fitted with a linear equation kobs=kon ligand+koff where kon is the microscopic association rate constant, and koff the microscopic dissociation rate constant.

rate constant in displacement by Gab2T ([1]; preincubated NSH2-CSH2 (2 µM) with Gab2C (10 µM) vs excess Gab2T (50 µM)): 82 ± 1 s⁻¹ | binding to isolated NSH2 domain, kinetic traces ([2]; NSH2 domain mixed with different concentrations of Gab2C peptide): no kinetic traces could be recorded
Substance: Gab2C: peptide mimicking Gab2_637–649 (binding the CSH2 domain)

rate constant in displacement by Gab2T ([1]; preincubated NSH2-CSH2 with Gab2N (both 2 µM) vs excess Gab2T (50 µM)): 1.2 ± 0.3 s⁻¹ | koff (microscopic dissociation rate constant) ([2]; isolated NSH2 domain, pH 7.2): 1.8 ± 0.1 s⁻¹ | kon (microscopic association rate constant) ([3]; dansylated Gab2N 1 µM vs NSH2-CSH2 2 to 9 µM, no Gab2C, pH 7.2, 10 °C, excitation 280 nm, average of 3–6 traces): 37.3 ± 0.8 µM⁻¹ s⁻¹ | kon (microscopic association rate constant) ([3]; dansylated Gab2N vs NSH2-CSH2, in the presence of 10 µM Gab2C, pH 7.2, 10 °C): 16.4 ± 0.2 µM⁻¹ s⁻¹ | kon (microscopic association rate constant) ([3]; dansylated Gab2N vs NSH2-CSH2, in the presence of 20 µM Gab2C, pH 7.2, 10 °C): 14.4 ± 0.2 µM⁻¹ s⁻¹ | koff (microscopic dissociation rate constant) ([3]; displacement of preincubated NSH2-CSH2/dansylated Gab2N (both 2 µM) by excess non-dansylated Gab2N (50 µM), pH 7.2, 10 °C): 1.8 ± 0.1 s⁻¹ | KD, calculated as koff/kon, tandem compared to isolated NSH2 domain ([3]; no Gab2C, pH 7.2): lower KD
Substance: Gab2N: peptide mimicking Gab2_608–620 (binding the NSH2 domain); used dansylated at the N-terminus and non-dansylated

displacement of Gab2N and Gab2C from NSH2-CSH2 ([1]; Gab2T 50 µM, pH 7.2): able to displace both peptides
Substance: Gab2T: peptide mimicking the entire segment of Gab2 binding both SH2 domains, corresponding to Gab2_608–649 (STGSVDYLALDFQPSSPSPHRKPSTSSVTSDEKVDYVQVDKE; UniProt Q9UQC2 608-649, looked up, fragment)
kinetic binding to NSH2-CSH2, fluorescence change ([3]; Gab2T not available in dansylated form): did not return any change in fluorescence
